This note sets out measurements from article PMC8034617 (Nucleic Acids Research, 2021).

Ends that are not written are not given here.

In test [1] the target is T1, His-RPS19 wt (human (cDNA from K562), UniProt P39019 1-145). Description: pull-down.
The target of test [2] is T1, His-RPS19 wt. The experiment in a line: thermal shift assay.

FPMRGRGGFDRMPPGRGGR (also: biotin, position not given here) [biotinylated HNRNPK peptide P1]: the binding result with His-RPS19 wt [1] was “binds”.
Still for that read-out and setting: next, FPMRGRGGFDRMPPGRGGR (also: biotinylated, position not given here) [biotinylated HNRNPK peptide P1m]: “binds”.
Turning to FPMRGRGGFDRMPPGRGGR (also: asymmetrically dimethylated, places not given here) [HNRNPK-derived peptide P1m (asymmetrically dimethylated)], the binding result with His-RPS19 wt [2] is recorded as “binds”.
